Experimental data taken from patent US20240336900A1, “METHODS AND COMPOSITIONS RELATED TO MODIFIED METHYLTRANSFERASES AND ENGINEERED BIOSENSORS” (BOARD OF REGENTS, THE UNIVERSITY OF TEXAS SYSTEM, priority 2023, published 2024).
Residue numbers refer to the chain shown, from its start. In names and notes the source's numbering stands.

Experiments:
[1] = Steady state kinetics of purified Nb4OMT variants; assay type: biochemical; details: for kcat: 3.5 nM enzyme, 500 μM SAM, 37° C., PBS pH 7.5; for Km: calculated by dividing kcat by kcat/Km
Description: Reactions for kinetics measurements were performed in triplicate for all enzyme variants. For each variant 1.5 ml reactions containing 3.5 nM of enzyme, 500 μM SAM, 2 mM CaCl2), and 15.625, 31.25, 62.5, 125, 250, or 500 μM norbelladine in PBS pH 7.5 were incubated at 37° C. for 4 hours. Every hour a 200 μl aliquot of each reaction was quenched by pipetting it into a 1.5 ml microcentrifuge tube with 20 μl of 2M HCl. The concentration of 4′-O-Methylnorbelladine was then determined using HPLC as described.
Kinetic data were fit in KinTek Explorer simulation and data fitting software v11 (Roy, 2018). The following minimal model was used as an input. Each line represents a step in the model and the forward reaction goes from left to right while the reverse reaction goes from right to left as written. • (1) E+S=ES • (2) ES=EP • (3) EP=E+P • (4) S=P2
3.5 nM enzyme and 15.625, 31.25, 62.5, 125, 250, and 500 M substrate. The output observable was defined as EP+P. Substrate oxidation was modeled in step (4) as irreversible with a best fit value from globally fitting data from all variants to derive k4=0.00547 min^−1.To get kout/Km and kcat: k−1, k−2, and k−3 were locked at 0 min-1 (irreversible reactions). k+3 was locked at 10,000 min-1 as to not limit the rate of turnover. k+1 and k+2 were used as variable parameters in the fitting. Under these conditions, k+2=kcat and k+1=kcat/Km. For estimates of 95% confidence intervals on kinetic parameters, confidence contour analysis was used with the FitSpace function in KinTek Explorer (Bhattacharya, 2015). Confidence contour plots are calculated by systematically varying a single rate constant and holding it fixed at a particular value while refitting the data, allowing other rate constants to float. The goodness of fit was scored by the resulting χ^2 value. The confidence interval is defined based on a threshold in χ^2 calculated from the F-distribution based on the number of data points and number of variable parameters to give the 95% confidence limits. For the data given in FIGS. 20A-20C, this threshold was 0.85 to estimate the upper and lower limits for each parameter. […] We then fit the data for these two variants to the model shown below, accounting for substrate inhibition.
As before, k+1 was allowed to float in the fitting to give kcat/Km, and k−1 was locked at 0 min^−1, k+2 was allowed to float in the fitting to give kcat, and k−2 was locked at 0 min^−1. k+3 was locked at 10,000 min^−1, and k−3 was locked at 0 min^−1. k+4 and k+6 were locked at 100 μM^−1 min^−1, and k−4 and k−6 were allowed to float in the fitting as linked parameters. k+5 was linked to k+1 and k−5 was locked at 0 min^−1. k−7 was locked at 0 min^−1, and k+7 was locked at 0.00547 min^−1.

[2] = HPLC and LC/MS analysis of in vivo Nb4OMT reaction supernatant; assay type: cell-based, Escherichia coli
Description: Assay samples were filtered using a 0.2-um PTFE syringe filter prior to running the HPLC. The measurement of Norbelladine and 4-O'Methyl-norbelladine was performed using a Vanquish HPLC system (Thermo Fisher Scientific) equipped with a BDS Hypersil TM C18 (3.0×150 mm 2, 3 um) (Thermo Fisher Scientific) with detection wavelength 277 nm. The mobile phase consisted of 0.1% formic acid in water or 0.1% formic acid in acetonitrile over the course of 28 minutes under the following conditions: 10% organic (vol/vol) for 2 minutes, 10 to 30% organic (vol/vol) for 13 minutes, 30 to 90% organic (vol/vol) for 0.1 minutes, 90% organic (vol/vol) for 4.9 minutes, 90 to 10% organic (vol/vol) for 1 minute, and 10% organic (vol/vol) for 7 minutes. The flow rate was fixed at 0.8 ml min-1. A standard curve for norbelladine was prepared using synthesized norbelladine (see Chemical synthesis and NMR analysis of norbelladine). A standard curve for 4-O'Methyl-norbelladine was prepared using commercially available 4-O'Methyl-norbelladine.
Cells containing the plasmid expressing each Nb4OMT variant with the P150-RBS (RiboJ) promoter were transformed and plated onto an LB agar plate containing appropriate antibiotics. […]
Samples were analyzed using an Agilent 6530 Q-TOF LC-MS with a dual Agilent Jet Stream electrospray ionization source in positive mode. […]

[3] = Differential scanning fluorimetry; assay type: physicochemical; details: for Tm: 5 μM protein, SYPRO Orange
Description: Purified Nb4OMT variants in the concentration of 5 μM were prepared in 96-well low-profile PCR plates (ABgene, Thermo Scientific). 10×SYPRO® Orange (Molecular Probes) was added into each well and mixed prior to measurement in an RT-PCR machine (LightCycler 480, Roche). The protein melting experiments were carried out with a continuous temperature acquisition mode using 10 acquisitions per 1° C. in each cycle from 20° C. to 95° C. The melting curves of the Nb4OMT variants were monophasic and Tm values were derived using Boltzmann equation.

[4] = Biosensor-linked O-methyltransferase activity assay; assay type: cell-based, Escherichia coli; details: single mutational designs; 25, 30, 37 °C; 100 uM, 1 mM norbelladine
Description: Nb4OMT was expressed with the P150-RBS (riboJ) promoter-RBS on the pReg-RamR plasmid backbone (no regulator present). Cells were co-transformed with both the 40MT plasmid and the 4NB reporter plasmid and plated on an LB agar plate containing appropriate antibiotics. Three individual colonies from each transformation were picked into LB and grown overnight. Resulting cultures were diluted 50-fold into 1 ml LB medium containing the indicated concentration of norbelladine in a 96-deep-well plate and were grown at the indicated temperature for 24 h. Subsequently, the fluorescence of cultures was measured in the same manner as previously described in Dose-response measurement above.

B1: Wild-type Nb4OMT: natural norbelladine 4′-O-Methyltransferase from Narcissus pseudonarcissus (protein)
chain: MGASIDDYSLVHKNILHSEDLLKYILETSAYPREHEQLKGLREVTEKHEWSSALVPADEGLFLSMLLKLMNAKRTIEIGVYTGYSLLTTALALPEDGKITAIDVNKSYYEIGLPFIQKAGVEHKINFIESEALPVLDQMLEEMKEEDLYDYAFVDADKSNYANYHERLVKLVRIGGAILYDNTLWYGSVAYPEYPGLHPEEEVARLSFRNLNTFLAADPRVEISQVSIGDGVTICRRLY
modifications: Description of sequence: Natural enzyme, norbelladine 4'-O-Methyltransferase
notes: natural norbelladine 4′-O-Methyltransferase from Narcissus pseudonarcissus
For B1, the kcat [1] was 73 min⁻¹, the Km [1] was 62 µM and the regiospecificity ([2]; 3-OMe-norbelladine identified as minor component) was “not highly regiospecific”. The Tm [3] was 52.8 °C.

B2: A53M mutant: Nb4OMT variant with mutation A53M (protein)
chain: B1 chain with A53M
modifications: Description of sequence: Improved enzyme variant A53M
With B2 the “increase in keut relative to the wild-type enzyme” value [1] was > 2.1 fold, the “increase of kcal/Km relative to the wild-type enzyme” value [1] was “about 2 fold” and the kcat [1] was >190 min⁻¹. The Km [1] was < 90 µM, the substrate inhibition ([1]; steady state kinetic data, highest norbelladine concentration) was “affected by substrate inhibition” and the “reduction of 3-O'Methyl-norbelladine off-product” value ([2]; relative to wild-type Nb4OMT) was “about 3 fold”. For the same molecule, the “increase in Tm relative to the wild-type enzyme” value [3] was 1.7 °C, the Tm [3] was 54.5 °C and the “fluorescent signal relative to the wild-type enzyme” value [4] was “significantly above the wild-type enzyme”.
